Source: US6573081

How the values were obtained:
[1] = target: Porcine circovirus (PCV) grown in PS cell culture (porcine circovirus); assay: ELISA, PCV supernatant adsorbed to the plate at virus dilution 1:800
[2] = target: Porcine circovirus (PCV) grown in PS cell culture (porcine circovirus); assay: ELISA, PCV supernatant adsorbed to the plate at virus dilution 1:3200
[3] = target: Porcine circovirus (PCV) grown in PS cell culture (porcine circovirus); assay: ELISA, PCV supernatant adsorbed to the plate at virus dilution 1:200
[4] = target: Porcine circovirus (PCV) grown in PS cell culture (porcine circovirus); assay: ELISA, PCV supernatant adsorbed to the plate at virus dilution 1:400
[5] = target: Porcine circovirus (PCV) grown in PS cell culture (porcine circovirus); assay: ELISA, PCV supernatant adsorbed to the plate at virus dilution 1:6400
[6] = target: Porcine circovirus (PCV) grown in PS cell culture (porcine circovirus); assay: ELISA, PCV supernatant adsorbed to the plate at virus dilution 1:1600

Human immunoglobulin concentrate (Beriglobin P)
extinction [1]: 1.17 extinction | extinction [2]: 0.268 extinction | extinction [3]: > 2 extinction | extinction [4]: 1.98 extinction | extinction [5]: 0.381 extinction | extinction [6]: 0.726 extinction
